# In patent US20160271157A1, “BETA-CATENIN” (UCL BUSINESS PLC, priority 2013, published 2016):
# What was measured:
# [1] = test system: MCF7 breast cancer cell line; assay: Live [Ca2+]i imaging after addition of Wnt ligand, MCF7; assay type: cell-based, human; details: MCF7 cells
# Experimental: The imaging protocol was developed in the inventor's laboratory and has been described in detail, elsewhere (Wang at al., (2010) PLoS ONE 5, e10456). Briefly, 100000-200000 PC3, MCF7, 253J or Cos 7 cells were plated on 35 mm FluoroDish (WPI) and grown for 48 h; calcium indicators Fluo-4 (Invitrogen) and FuraRed (Invitrogen) at 1 ng/ml were added to FluoroDish containing only 1 ml of culture medium and incubated for 15-20 min at 37° C. The culture medium was removed and washed (×2) and replaced with 1 ml PBS. Live cell calcium Imaging was performed on an Olympus FluoView FV 1000 confocal microscope (Olympus […]) equipped with a 20× dry objective (numerical aperture=0.75). Calcium indicators were excited with an argon laser line (488 nm) and emissions recorded in the green channel (500-560 nm) for Fluo-4 and red channel (600-700 nm) for FuraRed after addition of vehicle control (PBS) or Wnt X (30-600 ng/ml). Images were acquired every 1.1 or 2.2 seconds for up to 600-800s; image and data acquisition was performed using FluoView 1000 software (Olympus, UK). Fluorescent intensity was measured and data exported as a tab delimited file for further analysis using a spreadsheet. All imaging experiments were performed in duplicate; intracellular calcium at 100 ng/ml was measured in at least 3-12 different passages (passage numbers 25 to 37) of cell line for each Wnt ligand. Wnt 11 was tested in at least 5 different passages at 3 different concentrations. […] The measurements were exported as a tab delimited file into a spreadsheet for further analysis and Fluo4/Fura Red ratios were calculated. […] The time constants (rise, dwell and fall times) were calculated by first fitting the Fluo4/FuraRed ratio to a single Gaussian function (Origin Lab Corp., MA); a lower (10%) and upper (90%) amplitude thresholding method was then used to calculate the time constants (s). Statistical significance was calculated using Mann Whitney U test.
# [2] = test system: PC3 cells; assay: Intranuclear calcium and membrane potential imaging (Fluo4 and FM4-64); assay type: cell-based; details: Wnt5A 100 ng/ml
# Experimental: The imaging protocol was developed in the inventor's laboratory and has been described in detail, elsewhere (Wang at al., (2010) PLoS ONE 5, e10456). Briefly, 100000-200000 PC3, MCF7, 253J or Cos 7 cells were plated on 35 mm FluoroDish (WPI) and grown for 48 h; calcium indicators Fluo-4 (Invitrogen) and FuraRed (Invitrogen) at 1 ng/ml were added to FluoroDish containing only 1 ml of culture medium and incubated for 15-20 min at 37° C. The culture medium was removed and washed (×2) and replaced with 1 ml PBS. Live cell calcium Imaging was performed on an Olympus FluoView FV 1000 confocal microscope (Olympus […]) equipped with a 20× dry objective (numerical aperture=0.75). Calcium indicators were excited with an argon laser line (488 nm) and emissions recorded in the green channel (500-560 nm) for Fluo-4 and red channel (600-700 nm) for FuraRed after addition of vehicle control (PBS) or Wnt X (30-600 ng/ml). Images were acquired every 1.1 or 2.2 seconds for up to 600-800s; image and data acquisition was performed using FluoView 1000 software (Olympus, UK). Fluorescent intensity was measured and data exported as a tab delimited file for further analysis using a spreadsheet. All imaging experiments were performed in duplicate; intracellular calcium at 100 ng/ml was measured in at least 3-12 different passages (passage numbers 25 to 37) of cell line for each Wnt ligand. […]
# [3] = test system: Cos7 simian kidney cell line; assay: Live [Ca2+]i imaging after addition of Wnt ligand, Cos7; assay type: cell-based; details: Cos7 cells
# Experimental: The imaging protocol was developed in the inventor's laboratory and has been described in detail, elsewhere (Wang at al., (2010) PLoS ONE 5, e10456). Briefly, 100000-200000 PC3, MCF7, 253J or Cos 7 cells were plated on 35 mm FluoroDish (WPI) and grown for 48 h; calcium indicators Fluo-4 (Invitrogen) and FuraRed (Invitrogen) at 1 ng/ml were added to FluoroDish containing only 1 ml of culture medium and incubated for 15-20 min at 37° C. The culture medium was removed and washed (×2) and replaced with 1 ml PBS. Live cell calcium Imaging was performed on an Olympus FluoView FV 1000 confocal microscope (Olympus […]) equipped with a 20× dry objective (numerical aperture=0.75). Calcium indicators were excited with an argon laser line (488 nm) and emissions recorded in the green channel (500-560 nm) for Fluo-4 and red channel (600-700 nm) for FuraRed after addition of vehicle control (PBS) or Wnt X (30-600 ng/ml). […] Fluorescent intensity was measured and data exported as a tab delimited file for further analysis using a spreadsheet. All imaging experiments were performed in duplicate; intracellular calcium at 100 ng/ml was measured in at least 3-12 different passages (passage numbers 25 to 37) of cell line for each Wnt ligand. […] The measurements were exported as a tab delimited file into a spreadsheet for further analysis and Fluo4/Fura Red ratios were calculated. […]
Molecule,[Ca2+]i release in response to Wnt ligand [1],delay of increase in intranuclear Ca2+ after start of increase in [Ca2+]i ([2]; Fluo4 and FM4) [s],FM4 signal (depolarization) of cell and nuclear membranes ([2]; t=250s),[Ca2+]i activation in response to Wnt ligand [3]
Wnt10B: Recombinant Wnt peptide purchased from R&D systems,activated [Ca^2+]i release,,,
"Wnt5A: Recombinant Wnt peptide purchased from R&D systems (protein, UniProt P41221 62-380, looked up) Protein Wnt-5a: IIGAQPLCSQLAGLSQGQKKLCHLYQDHMQYIGEGAKTGIKECQYQFRHRRWNCSTVDNTSVFGRVMQIGSRETAFTYAVSAAGVVNAMSRACREGELSTCGCSRAARPKDLPRDWLWGGCGDNIDYGYRFAKEFVDARERERIHAKGSYESARILMNLHNNEAGRRTVYNLADVACKCHGVSGSCSLKTCWLQLADFRKVGDALKEKYDSAAAMRLNSRGKLVQVNSRFNSPTTQDLVYIDPSPDYCVRNESTGSLGTQGRLCNKTSEGMDGCELMCCGRGYDQFKTVQTERCHCKFHWCCYVKCKKCTEIVDQFVCK",activated [Ca^2+]i release,~33,increase in the FM4 signal in the cell and nuclear membranes,activated [Ca^2+]i
"Wnt9B: Recombinant Wnt peptide purchased from R&D systems (protein, UniProt O14905 23-357, looked up) Protein Wnt-9b: SYFGLTGREVLTPFPGLGTAAAPAQGGAHLKQCDLLKLSRRQKQLCRREPGLAETLRDAAHLGLLECQFQFRHERWNCSLEGRMGLLKRGFKETAFLYAVSSAALTHTLARACSAGRMERCTCDDSPGLESRQAWQWGVCGDNLKYSTKFLSNFLGSKRGNKDLRARADAHNTHVGIKAVKSGLRTTCKCHGVSGSCAVRTCWKQLSPFRETGQVLKLRYDSAVKVSSATNEALGRLELWAPARQGSLTKGLAPRSGDLVYMEDSPSFCRPSKYSPGTAGRVCSREASCSSLCCGRGYDTQSRLVAFSCHCQVQWCCYVECQQCVQEELVYTCKH",activated [Ca^2+]i release,,,
